FireProtDB (doi:10.1016/s0022-2836(02)00737-4)

Details: Escherichia coli (strain K12); pH 7.8; 25 °C; Urea; CD; potassium phosphate 10 mM; transition: 3; whole UniProt chain shown

B1: Tryptophan synthase alpha chain wild type, P0A877 (protein)
chain: MERYESLFAQLKERKEGAFVPFVTLGDPGIEQSLKIIDTLIEAGADALELGIPFSDPLADGPTIQNATLRAFAAGVTPAQCFEMLALIRQKHPTIPIGLLMYANLVFNKGIDEFYAQCEKVGVDSVLVADVPVEESAPFRQAALRHNVAPIFICPPNADDDLLRQIASYGRGYTYLLSRAGVTGAENRAALPLNHLVAKLKEYNAAPPLQGFGISAPDQVKAAIDAGAAGAISGSAIVKIIEQHINEPEKMLAALKVFVQPMKAATRS
For B1, the denaturant m value was 2.29 kcal/mol/M, the “denaturant midpoint (higher = more stable)” value was 2.68 M and the unfolding free energy was 6.13 kcal/mol.
